Laboratory results from the supplement of paper PMC10567573.

B1: BTBD1 (parent)
chain: TSAEIELPDVEPAAFLALLRFLYS

Variants of: B1
Assay: protein stability index of a GFP-peptide fusion (GPS, HEK-293T) (PSI 1-6); higher = more stable
Conditions: c terminus: a fixed tail appended
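Further: lentivirally expressed fusions sorted by FACS into six bins by GFP to DsRed ratio, PSI derived from sequencing read proportions per bin multiplied by bin number.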

For A3N, which protein stability index is on record?
Its protein stability index is 1.96.

For A3T, which protein stability index is on record?
The protein stability index was 1.99.

With A3Y as the variant, how does the protein stability index read?
The protein stability index was 1.83.

With A3M as the variant, how does the protein stability index read?
The protein stability index was 1.52.

For A3I, which protein stability index is on record?
The protein stability index was 2.26.

For A3Q, which protein stability index is on record?
Its protein stability index is 2.01.

Which protein stability index does the source give for A3C here?
Its protein stability index is 1.98.

Which protein stability index does the source give for A3E here?
Its protein stability index is 1.91.

Which protein stability index does the source give for A3G here?
Its protein stability index is 2.66.

For A3V, which protein stability index is on record?
Its protein stability index is 2.27.

With A3K as the variant, how does the protein stability index read?
The protein stability index was 2.17.

Which protein stability index does the source give for A3F here?
Its protein stability index is 1.58.

Which protein stability index does the source give for A3R here?
The protein stability index was 2.26.

Which protein stability index does the source give for A3L here?
Its protein stability index is 1.53.

Which protein stability index does the source give for A3S here?
Its protein stability index is 1.67.

Which protein stability index does the source give for A3W here?
Its protein stability index is 1.41.

Which protein stability index does the source give for T1S here?
Its protein stability index is 1.65.

Which protein stability index does the source give for T1H here?
The protein stability index was 2.15.

Which protein stability index does the source give for T1N here?
Its protein stability index is 2.17.

With T1M as the variant, how does the protein stability index read?
The protein stability index was 2.46.

For T1K, which protein stability index is on record?
Its protein stability index is 2.68.

For T1G, which protein stability index is on record?
Its protein stability index is 2.56.

Which protein stability index does the source give for T1Y here?
The protein stability index was 1.97.

Which protein stability index does the source give for T1D here?
The protein stability index was 2.4.

Which protein stability index does the source give for T1V here?
Its protein stability index is 1.88.

With T1E as the variant, how does the protein stability index read?
Its protein stability index is 1.66.

With T1Q as the variant, how does the protein stability index read?
Its protein stability index is 1.97.

With T1F as the variant, how does the protein stability index read?
The protein stability index was 1.79.

Which protein stability index does the source give for T1L here?
Its protein stability index is 2.02.

With T1C as the variant, how does the protein stability index read?
Its protein stability index is 2.79.

For D9P, which protein stability index is on record?
The protein stability index was 2.4.

With D9T as the variant, how does the protein stability index read?
Its protein stability index is 2.55.

With D9A as the variant, how does the protein stability index read?
The protein stability index was 1.84.

For D9G, which protein stability index is on record?
Its protein stability index is 1.92.

For D9V, which protein stability index is on record?
The protein stability index was 1.95.

Which protein stability index does the source give for D9N here?
Its protein stability index is 2.

For D9S, which protein stability index is on record?
The protein stability index was 2.12.

For D9W, which protein stability index is on record?
The protein stability index was 2.12.

For D9Q, which protein stability index is on record?
Its protein stability index is 2.45.

Which protein stability index does the source give for D9M here?
Its protein stability index is 2.11.

With D9I as the variant, how does the protein stability index read?
Its protein stability index is 1.49.

Which protein stability index does the source give for D9L here?
Its protein stability index is 1.63.

For D9E, which protein stability index is on record?
Its protein stability index is 2.19.

Which protein stability index does the source give for D9F here?
The protein stability index was 2.23.

For D9C, which protein stability index is on record?
The protein stability index was 1.62.

Which protein stability index does the source give for D9K here?
The protein stability index was 1.98.

For F21M, which protein stability index is on record?
Its protein stability index is 1.94.

With F21H as the variant, how does the protein stability index read?
Its protein stability index is 2.14.

Which protein stability index does the source give for F21A here?
The protein stability index was 2.21.

For F21G, which protein stability index is on record?
Its protein stability index is 2.18.

Which protein stability index does the source give for F21E here?
The protein stability index was 1.82.

Which protein stability index does the source give for F21W here?
Its protein stability index is 2.41.

For F21T, which protein stability index is on record?
The protein stability index was 1.89.

Which protein stability index does the source give for F21C here?
Its protein stability index is 1.4.

Which protein stability index does the source give for F21Q here?
The protein stability index was 1.99.

With F21L as the variant, how does the protein stability index read?
The protein stability index was 2.01.

For F21N, which protein stability index is on record?
Its protein stability index is 1.69.

With F21V as the variant, how does the protein stability index read?
Its protein stability index is 2.01.

With F21S as the variant, how does the protein stability index read?
The protein stability index was 1.97.

For L22W, which protein stability index is on record?
The protein stability index was 1.56.

Which protein stability index does the source give for L22D here?
Its protein stability index is 1.87.

For L22T, which protein stability index is on record?
The protein stability index was 1.98.

With L22V as the variant, how does the protein stability index read?
Its protein stability index is 2.15.

For L22A, which protein stability index is on record?
The protein stability index was 1.71.

For L22Q, which protein stability index is on record?
Its protein stability index is 1.5.

With L22K as the variant, how does the protein stability index read?
Its protein stability index is 1.91.

Which protein stability index does the source give for L22E here?
Its protein stability index is 2.07.

Which protein stability index does the source give for L22N here?
Its protein stability index is 2.06.

With L22I as the variant, how does the protein stability index read?
Its protein stability index is 1.75.

Which protein stability index does the source give for L22F here?
The protein stability index was 2.61.

Which protein stability index does the source give for L22R here?
The protein stability index was 1.26.

Which protein stability index does the source give for L22M here?
Its protein stability index is 2.23.

For L22G, which protein stability index is on record?
Its protein stability index is 1.72.

With L22S as the variant, how does the protein stability index read?
The protein stability index was 1.16.

With L22H as the variant, how does the protein stability index read?
Its protein stability index is 1.96.

Which protein stability index does the source give for V10R here?
Its protein stability index is 2.09.

With V10P as the variant, how does the protein stability index read?
The protein stability index was 2.32.

For V10L, which protein stability index is on record?
The protein stability index was 1.56.

Which protein stability index does the source give for V10G here?
The protein stability index was 2.23.

Which protein stability index does the source give for V10M here?
The protein stability index was 1.95.

For V10E, which protein stability index is on record?
Its protein stability index is 2.35.

With V10W as the variant, how does the protein stability index read?
Its protein stability index is 1.62.

With V10D as the variant, how does the protein stability index read?
Its protein stability index is 2.2.

Which protein stability index does the source give for V10C here?
Its protein stability index is 1.67.

With V10I as the variant, how does the protein stability index read?
The protein stability index was 1.8.

For V10Y, which protein stability index is on record?
The protein stability index was 1.78.

With V10A as the variant, how does the protein stability index read?
The protein stability index was 1.8.

Which protein stability index does the source give for L16E here?
Its protein stability index is 2.06.

Which protein stability index does the source give for L16V here?
The protein stability index was 1.81.

With L16I as the variant, how does the protein stability index read?
Its protein stability index is 1.62.

For L16Y, which protein stability index is on record?
The protein stability index was 1.53.

For L16F, which protein stability index is on record?
Its protein stability index is 2.06.

For L16P, which protein stability index is on record?
Its protein stability index is 1.94.

With L16A as the variant, how does the protein stability index read?
The protein stability index was 2.19.

With L16Q as the variant, how does the protein stability index read?
The protein stability index was 2.31.

Which protein stability index does the source give for L16H here?
The protein stability index was 1.74.

For L16C, which protein stability index is on record?
The protein stability index was 1.99.

For L16T, which protein stability index is on record?
The protein stability index was 1.87.

For L16W, which protein stability index is on record?
The protein stability index was 1.96.

For L16R, which protein stability index is on record?
Its protein stability index is 1.64.

With L16N as the variant, how does the protein stability index read?
The protein stability index was 2.01.

For L16G, which protein stability index is on record?
The protein stability index was 1.64.

With L16S as the variant, how does the protein stability index read?
The protein stability index was 1.69.

For L16D, which protein stability index is on record?
Its protein stability index is 1.88.

For L16K, which protein stability index is on record?
Its protein stability index is 1.47.

With I5E as the variant, how does the protein stability index read?
Its protein stability index is 2.03.

For I5S, which protein stability index is on record?
The protein stability index was 1.94.

For I5V, which protein stability index is on record?
The protein stability index was 1.75.

With I5R as the variant, how does the protein stability index read?
Its protein stability index is 2.55.

With I5D as the variant, how does the protein stability index read?
Its protein stability index is 2.44.

For I5Q, which protein stability index is on record?
Its protein stability index is 2.4.

Which protein stability index does the source give for I5G here?
Its protein stability index is 2.55.

With I5Y as the variant, how does the protein stability index read?
The protein stability index was 1.95.

For I5A, which protein stability index is on record?
The protein stability index was 2.06.

For I5P, which protein stability index is on record?
The protein stability index was 1.68.

Which protein stability index does the source give for I5M here?
The protein stability index was 1.89.

Which protein stability index does the source give for I5C here?
Its protein stability index is 1.77.

Which protein stability index does the source give for Y23D here?
Its protein stability index is 1.49.

For Y23W, which protein stability index is on record?
The protein stability index was 1.99.

Which protein stability index does the source give for Y23A here?
Its protein stability index is 1.99.

Which protein stability index does the source give for Y23I here?
Its protein stability index is 1.97.

Which protein stability index does the source give for Y23E here?
Its protein stability index is 1.9.

Which protein stability index does the source give for Y23K here?
Its protein stability index is 2.1.

With Y23P as the variant, how does the protein stability index read?
The protein stability index was 1.75.

With Y23S as the variant, how does the protein stability index read?
Its protein stability index is 1.36.

With Y23C as the variant, how does the protein stability index read?
The protein stability index was 1.79.

Which protein stability index does the source give for Y23T here?
The protein stability index was 1.94.

For Y23H, which protein stability index is on record?
The protein stability index was 1.6.

Which protein stability index does the source give for Y23G here?
Its protein stability index is 1.58.

With S24L as the variant, how does the protein stability index read?
The protein stability index was 2.39.

For S24V, which protein stability index is on record?
Its protein stability index is 2.1.

With S24F as the variant, how does the protein stability index read?
The protein stability index was 2.33.

For S24N, which protein stability index is on record?
The protein stability index was 1.78.

Which protein stability index does the source give for S24I here?
Its protein stability index is 2.32.

For S24D, which protein stability index is on record?
Its protein stability index is 1.89.

Which protein stability index does the source give for S24E here?
Its protein stability index is 1.69.

With S24K as the variant, how does the protein stability index read?
Its protein stability index is 1.52.

For S24P, which protein stability index is on record?
The protein stability index was 2.61.

For S24W, which protein stability index is on record?
Its protein stability index is 1.89.

For S24Q, which protein stability index is on record?
The protein stability index was 2.33.

Which protein stability index does the source give for S24T here?
Its protein stability index is 1.97.

With S24R as the variant, how does the protein stability index read?
Its protein stability index is 2.44.

For L19G, which protein stability index is on record?
Its protein stability index is 1.89.

With L19H as the variant, how does the protein stability index read?
Its protein stability index is 2.05.

With L19Q as the variant, how does the protein stability index read?
Its protein stability index is 1.51.

With L19I as the variant, how does the protein stability index read?
Its protein stability index is 2.37.

Which protein stability index does the source give for L19M here?
Its protein stability index is 2.05.

With L19V as the variant, how does the protein stability index read?
The protein stability index was 1.72.

For L19K, which protein stability index is on record?
Its protein stability index is 2.07.

For L19T, which protein stability index is on record?
The protein stability index was 1.76.

Which protein stability index does the source give for L19N here?
The protein stability index was 1.77.

Which protein stability index does the source give for L19C here?
Its protein stability index is 1.94.

For L19W, which protein stability index is on record?
Its protein stability index is 1.98.

For F15E, which protein stability index is on record?
The protein stability index was 2.31.

For F15N, which protein stability index is on record?
The protein stability index was 1.98.

Which protein stability index does the source give for F15R here?
The protein stability index was 2.2.

For F15Y, which protein stability index is on record?
The protein stability index was 2.56.

For F15V, which protein stability index is on record?
The protein stability index was 1.75.

Which protein stability index does the source give for F15L here?
The protein stability index was 1.31.

For F15T, which protein stability index is on record?
The protein stability index was 1.78.

Which protein stability index does the source give for F15K here?
The protein stability index was 1.71.

Which protein stability index does the source give for F15Q here?
The protein stability index was 1.83.

With F15A as the variant, how does the protein stability index read?
The protein stability index was 1.69.

Which protein stability index does the source give for F15P here?
The protein stability index was 2.6.

For L7P, which protein stability index is on record?
Its protein stability index is 2.3.

With L7A as the variant, how does the protein stability index read?
Its protein stability index is 1.88.

For L7F, which protein stability index is on record?
The protein stability index was 1.96.
